This passage reports Kd results from publication PMC6385242, “Identification and characterization of a factor Va-binding site on human prothrombin fragment 2” (Scientific Reports, 2019).

The target of the assay is T1, Wild-type prothrombin (human, UniProt P00734 44-622).
T1 construct: prothrombin, human
Put plainly: SPR; Biacore T200; FVa amine-coupled on a CM5 chip (8000-9000 RU); prothrombin 0-10,000 nM injected for 60 s at 30 uL/min; HBS (0.02 M HEPES, 0.15 M NaCl, pH 7.4) with 5 mM CaCl2 and 0.01% Tween-80; kinetic 1:1 Langmuir model. The conditions noted are these: both partners purified. Background: Surface plasmon resonance follows binding to a sensor surface in real time, without labels.

B1: Factor Va (complex)
heavy: AQLRQFYVAAQGISWSYRPEPTNSSLNLSVTSFKKIVYREYEPYFKKEKPQSTISGLLGPTLYAEVGDIIKVHFKNKADKPLSIHPQGIRYSKLSEGASYLDHTFPAEKMDDAVAPGREYTYEWSISEDSGPTHDDPPCLTHIYYSHENLIEDFNSGLIGPLLICKKGTLTEGGTQKTFDKQIVLLFAVFDESKSWSQSSSLMYTVNGYVNGTMPDITVCAHDHISWHLLGMSSGPELFSIHFNGQVLEQNHHKVSAITLVSATSTTANMTVGPEGKWIISSLTPKHLQAGMQAYIDIKNCPKKTRNLKKITREQRRHMKRWEYFIAAEEVIWDYAPVIPANMDKKYRSQHLDNFSNQIGKHYKKVMYTQYEDESFTKHTVNPNMKEDGILGPIIRAQVRDTLKIVFKNMASRPYSIYPHGVTFSPYEDEVNSSFTSGRNNTMIRAVQPGETYTYKWNILEFDEPTENDAQCLTRPYYSDVDIMRDIASGLIGLLLICKSRSLDRRGIQRAADIEQQAVFAVFDENKSWYLEDNINKFCENPDEVKRDDPKFYESNIMSTINGYVPESITTLGFCFDDTVQWHFCSVGTQNEILTIHFTGHSFIYGKRHEDTLTLFPMRGESVTVTMDNVGTWMLTSMNSSPRSKKLRLKFRDVKCIPDDDEDSYEIFEPPESTVMATRKMHDRLEPEDEESDADYDYQNRLAAALGIR
light: SNNGNRRNYYIAAEEISWDYSEFVQRETDIEDSDDIPEDTTYKKVVFRKYLDSTFTKRDPRGEYEEHLGILGPIIRAEVDDVIQVRFKNLASRPYSLHAHGLSYEKSSEGKTYEDDSPEWFKEDNAVQPNSSYTYVWHATERSGPESPGSACRAWAYYSAVNPEKDIHSGLIGPLLICQKGILHKDSNMPMDMREFVLLFMTFDEKKSWYYEKKSRSSWRLTSSEMKKSHEFHAINGMIYSLPGLKMYEQEWVRLHLLNIGGSQDIHVVHFHGQTLLENGNKQHQLGVWPLLPGSFKTLEMKASKPGWWLLNTEVGENQRAGMQTPFLIMDRDCRMPMGLSTGIISDSQIKASEFLGYWEPRLARLNNGGSYNAWSVEKLAAEFASKPWIQVDMQKEVIITGIQTQGAKHYLKSCYTTEFYVAYSSNQINWQIFKGNSTRNVMYFNGNSDASTIKENQFDPPIVARYIRISPTRAYNRPTLRLELQGCEVNGCSTPLGMENGKIENKQITASSFKKSWWGDYWEPFRARLNAQGRVNAWQAKANNNKQWLEIDLLKIKKITAIITQGCKSLSSEMYVKSYTIHYSEQGVEWKPYRLKSSMVDKIFEGNTNTKGHVKNFFNPPIISRFIRVIPKTWNQSIALRLELFGCDIY
notes: heavy chain of factor Va; light chain of factor Va; Bovine FVa is named only for the preparation of the heavy chain for NMR; the source of the FVa of the other experiments is in the Supplementary Materials; also called FVa
The Kd is the constant that tells how readily two partners part at equilibrium. Low readings indicate a tighter complex, high ones a looser complex. In turn, B1 had a dissociation constant (Kd) of 1000 nM.
